Assay results reported in the supplement of paper PMC9876800.

Test system: peptide library, one residue held at a place counted from the S/T acceptor
Assay: relative phosphorylation of the sub-library (ratio to the mean residue at this position); higher = residue favoured
Conditions: human
How it was run: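 Spots on streptavidin membranes were phosphorimaged and quantified by densitometry to measure phosphorylation of biotinylated degenerate peptide sub-libraries by purified recombinant kinases, human or orthologue constructs. The reactions ran in 384-well plates for 90 min under kinase-specific conditions, with peptides at 50 μM and 50 μM ATP spiked with γ-32P-ATP. Relative sub-library phosphorylation is the ratio to the mean residue at that position.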

Sequence of STK17A, construct: Full length (Q9UEE5 whole entry, looked up): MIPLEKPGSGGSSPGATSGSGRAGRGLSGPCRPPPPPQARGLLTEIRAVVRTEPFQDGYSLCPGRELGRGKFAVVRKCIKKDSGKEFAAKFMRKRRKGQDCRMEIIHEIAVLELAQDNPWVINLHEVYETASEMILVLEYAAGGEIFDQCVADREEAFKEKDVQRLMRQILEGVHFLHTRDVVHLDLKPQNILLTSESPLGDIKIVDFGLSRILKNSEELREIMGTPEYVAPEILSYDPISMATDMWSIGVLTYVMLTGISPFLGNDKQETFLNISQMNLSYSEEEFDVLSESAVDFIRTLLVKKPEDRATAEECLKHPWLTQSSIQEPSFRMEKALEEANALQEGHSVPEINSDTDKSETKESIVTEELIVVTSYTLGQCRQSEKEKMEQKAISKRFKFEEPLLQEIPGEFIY

STK17A, construct: Full length (from UniProt Q9UEE5)
relative phosphorylation
Conditions | at +1 | at +2 | at +3 | at +4 | at -1 | at -2 | at -3 | at -4 | at -5
A fixed | 0.4 | 0.562 | 0.679 | 0.808 | 0.636 | 1.04 | 0.701 | 0.927 | 0.979
D fixed | 0.954 | 0.564 | 0.686 | 0.86 | 0.85 | 0.657 | 0.799 | 1.06 | 0.922
E fixed | 0.984 | 0.612 | 1.18 | 0.917 | 0.967 | 0.597 | 0.681 | 1.09 | 0.916
F fixed | 4.75 | 0.832 | 1.05 | 0.896 | 1.11 | 0.943 | 0.802 | 0.772 | 0.876
G fixed | 0.63 | 0.444 | 0.889 | 0.868 | 0.801 | 1.2 | 0.868 | 1.23 | 1.11
H fixed | 0.502 | 1.83 | 1.12 | 1.15 | 1.16 | 1.25 | 1.02 | 1.03 | 1.06
I fixed | 0.75 | 0.709 | 1.49 | 0.742 | 0.621 | 0.491 | 0.65 | 0.586 | 0.721
K fixed | 0.498 | 1.7 | 1.08 | 1.49 | 1.23 | 1.32 | 1.28 | 1.43 | 1.63
L fixed | 0.678 | 0.732 | 0.989 | 0.713 | 1.24 | 0.648 | 0.783 | 0.62 | 0.872
M fixed | 1.41 | 0.787 | 0.984 | 0.669 | 1.19 | 0.892 | 1.13 | 0.798 | 0.837
N fixed | 0.558 | 0.93 | 0.733 | 0.988 | 1.06 | 1.05 | 0.902 | 1 | 1.06
P fixed | 0.251 | 0.332 | 0.539 | 0.952 | 0.589 | 0.673 | 0.888 | 0.979 | 0.993
Q fixed | 1.66 | 1.09 | 0.815 | 1 | 0.931 | 0.934 | 0.989 | 0.782 | 0.704
R fixed | 0.494 | 2.6 | 1.17 | 1.7 | 1.18 | 1.8 | 2.58 | 1.32 | 1.38
V fixed | 0.53 | 0.708 | 1.04 | 0.693 | 0.721 | 0.638 | 0.56 | 0.73 | 0.829
W fixed | 0.974 | 1.16 | 1.2 | 1.33 | 1.07 | 1.83 | 1.43 | 1.81 | 1.16
Y fixed | 0.972 | 1.41 | 1.37 | 1.23 | 1.64 | 1.04 | 0.945 | 0.842 | 0.947
pThr fixed | 6.24 | 3.31 | 1.2 | 1.45 | 0.813 | 0.788 | 0.9 | 0.977 | 0.971
pTyr fixed | 1.4 | 1.6 | 3.08 | 1.39 | 1.61 | 0.941 | 1.06 | 1.17 | 0.918
